The nature of this data set: yeast display, Sf9 membrane polyspecificity reagent, FACS + sequencing; frameworks hold sequencing errors. In outline: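 After 36–48 hours of galactose induction, yeast (Saccharomyces cerevisiae BJ5465) displaying a synthetic nanobody library were stained at 4 °C for 1 hour with 10% biotinylated, detergent-solubilized Sf9 membrane reagent. Streptavidin microbeads enriched the stained cells before FACS sorting into low and high (top ~1%) gates on anti-HA and streptavidin fluorescence. Each clone's polyreactivity label reflects its gate of origin.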
Turning to “QVQLVESGGGLVQAGGSLRLSCAASGRTFTHYAMGWYRQAPGKERELVAAISWSGGRTYYADSVKGRFTISRDNAKNTVYLQMNSLKPEDTAVYYCAADAFRGFYWGQGTQVTVSS”, the “polyreactivity (PSR sort gate)” value is listed as “high polyreactivity”.

In the case of “QVQLVESGGGLVQAGGSLRLSCAASGRTFTKYAMGWYRQAPGKERELVAAISRSGGSSYYADSAPGRFTISRDNAKNTVYLQMNSLKPEDTAVYYCAARGQYRYSFGDYSWGQGTQVTVSS”, the “polyreactivity (PSR sort gate)” value is “high polyreactivity”.

Turning to “QVQLVESGGGLVQAGGSLRLSCAASGRTFTLNAMGWYRQAPGKEREFVAAISNSGVRTYYADSVKGRFTISRDNAKNTVYLQMNSLKPEDTAVYYCARTYQVGDSIDDYWGQGTQVTVSS”, the “polyreactivity (PSR sort gate)” value was “low polyreactivity”.

Turning to “QVQLVESGGGLVQAGGSLRLSCAASGRTFTLNAMGWYRQAPGKERELVATISRRGGSTYYADSVKGRFTISRDNAKNTVYLQMNSLKPEDTAVYYCNVDRLGQRYDYWGQGTQVTVSS”, the “polyreactivity (PSR sort gate)” value is on record as “low polyreactivity”.

With “QVQLVESGGGLVQAGGSLRLSCAASGRTFTNYAMGWYRQAPGKERELVAAISKRGGTTYYADSVKGRFTISRDNAKNTVYLQMNSLKPEDTAVYYCNKAKTAYRGQYDYWGQGTQVTVSS”, the “polyreactivity (PSR sort gate)” value is given as “high polyreactivity”.

“QVQLVESGGGLVQAGGSLRLSCAASGRTFTQNAMGWYRQAPAKERELVAAISKSGDRTYYADSVKGRFTISRDNAKNTVYLQMNSLKPEDTAVYYCAADTYVSYYWWQTEDDYWGQGTQVTVSS”: the “polyreactivity (PSR sort gate)” value is recorded as “high polyreactivity”.

With “QVQLVESGGGLVQAGGSLRLSCAASGRTFTQYAMGWYRQAPGKEREFVAAINFSGSRTYYADSVKGRFTISRDNAKNTVYLQMNSLKPEDTAVYYCNKRGSVYTSSQRQHDYWGQGTQVTVSS”, the “polyreactivity (PSR sort gate)” value was “low polyreactivity”.

Regarding “QVQLVESGGGLVQAGGSLRLSCAASGRTFTQYAMGWYRQAPGKERELVAAISWRGGSTYYADSVKGRFTISRDNAKNTVYLQMNSLKPEDTAVYYCAKRYFRGYPLYDYWGQGTQVTVSS”, the “polyreactivity (PSR sort gate)” value was “high polyreactivity”.

Regarding “QVQLVESGGGLVQAGGSLRLSCAASGRTFTRYAMGWYRQAPGKERELVAAISRGGNTNYADSVKGLFTISRDNAKNTVYLQMNSLKPEDTAVYYCARVYGGYSVPSAYGSWGQGTQVTVSS”, the “polyreactivity (PSR sort gate)” value was “high polyreactivity”.

“QVQLVESGGGLVQAGGSLRLSCAASGRTFTSYAMGWYRQAPGKERELVAAISSSGSSTYYADSVKGRFTISRDNAKNTVYLQMNSLKPEDTAVYYCAVGGSFRYRVQYDYWGQGTQVTVSS”: the “polyreactivity (PSR sort gate)” value is reported as “high polyreactivity”.

With “QVQLVESGGGLVQAGGSLRLSCAASGRTFTSYVMGWYRQAPGKERELVAAISWSGDSTYYADSVKGRFTISRDNAKNTVYLQMNSLKPEDTAVDYCARVPPAAYVAYDYWGQGTQVTVSS”, the “polyreactivity (PSR sort gate)” value is listed as “high polyreactivity”.

Regarding “QVQLVESGGGLVQAGGSLRLSCAASGRTFTVYAMGWYRQAPGKEREFVATISRSGGSTYYADSVKGRFTISRDNAKNTVYLQMNSLKPEDTAVYYCAARRSGRKYDYWGQGTQVTVSS”, the “polyreactivity (PSR sort gate)” value is recorded as “high polyreactivity”.

Turning to “QVQLVESGGGLVQAGGSLRLSCAASGRTFTWYAMGWYRQAPGKERELVAAITNGGRRYADSVKGRFTISRDNAKTTVYLQMNSLKPEDTAVYYCATQPLTWSSYRWDWRAQFDHWGQGTQVTVSS”, the “polyreactivity (PSR sort gate)” value is on record as “low polyreactivity”.

On to “QVQLVESGGGLVQAGGSLRLSCAASGRTFTYNAMGWYRQAPGKDRELVARISFSGSSTYYADSVKGRFTISRDNAKNTVYLQMNSLKPEDTAVYYCATEAPYYIGGRYRYQRYDYWGQGTQVTVSS”, for which the “polyreactivity (PSR sort gate)” value is “high polyreactivity”.

With “QVQLVESGGGLVQAGGSLRLSCAASGRTFTYNMGWYRQAPGKERELVAANDLRRLCEGALHNFTRQCDEYRLFTDEQPETGRYPVYYCNADPAWIWYTFDYWGQGTQVTVSS”, the “polyreactivity (PSR sort gate)” value was “low polyreactivity”.

For the sequence “QVQLVESGGGLVQAGGSLRLSCAASGRTFTYYAMGWYIQAPGKEREFVASISLSGGRTYYADSVKGRFTISRDNAKNTVYLQMNSLKPEDTAVYYCNAYYPRVDRYDYWGQGTQVTVSS”, the “polyreactivity (PSR sort gate)” value is “low polyreactivity”.

Turning to “QVQLVESGGGLVQAGGSLRLSCAASGRTFTYYAMGWYRPAPGKERELVASISTTGRTYYADSVKGRFTISRDNAKNTVYLQMNSLKPEDTAVYYCATRSRYYYDYWGQGTQVTVSS”, the “polyreactivity (PSR sort gate)” value was “high polyreactivity”.

For “QVQLVESGGGLVQAGGSLRLSCAASGRTFTYYAMGWYRQAPGKQRELVASINQNGGDTYYADSVKGRFTLSRDNAKNTDYLQMNSLKPADTAVYYCAAEAGYYVQTVAVDMGYWGQGTQVTVSS”, the “polyreactivity (PSR sort gate)” value was “low polyreactivity”.

In the case of “QVQLVESGGGLVQAGGSLRLSCAASGRTFVANAMGLYRQAPGKERELVAAISSSGGSTYYADSVKGRFTISRDYAKNTVYLQMNSLKPEDTAVYYCNRVGVYYRLYPYYYWGQGTQVTVSS”, the “polyreactivity (PSR sort gate)” value is on record as “high polyreactivity”.

Regarding “QVQLVESGGGLVQAGGSLRLSCAASGRTFVDNAMGWYRQAPGKKRELVATISSGDSTTYADSVKGRFTISRDNAKNTVYLQMNSLKPEDTAVYYCAAAYGWSWYRYDYWGQGTQVTVSS”, the “polyreactivity (PSR sort gate)” value is “high polyreactivity”.

Turning to “QVQLVESGGGLVQAGGSLRLSCAASGRTFVFNAMGWYRQAPGKERELVAAITISGGSTYYADSVKGRFTISRDNAKNTVYLQMNSLKPEDTAVYYCNADSKIEVFSYIYDYWGQGTQVTVSS”, the “polyreactivity (PSR sort gate)” value is reported as “high polyreactivity”.

Take “QVQLVESGGGLVQAGGSLRLSCAASGRTFVFNTMGWYRQAPGKERELVADISRGDSTNYADSVKGRFTISRDNAKNTVYLQMNSLKPEDTAVYYCAAKWRWSGSILYRYGYGYWGQGTQVTVSS”: the “polyreactivity (PSR sort gate)” value is listed as “high polyreactivity”.

For the sequence “QVQLVESGGGLVQAGGSLRLSCAASGRTFVFYAMGWYRPAPGKERELVADITWSDGNTYYADSVKGRFTISRDNAKNSVYLQMKSLKPEDTAVYYCAKVRTGQSRSVGYDYWGQGTQVTGSS”, the “polyreactivity (PSR sort gate)” value is on record as “low polyreactivity”.

For the sequence “QVQLVESGGGLVQAGGSLRLSCAASGRTFVFYAMGWYRQAPGKERELVAAITSSGGRTYYADSVKGRFTISRDNAKNTVYLQMNSLKPEDTAFYYCAAPYYPYKYDYWGQGTQVTVSS”, the “polyreactivity (PSR sort gate)” value is recorded as “low polyreactivity”.

Take “QVQLVESGGGLVQAGGSLRLSCAASGRTFVGNAMGWYRQAPGKERELVAAITVNGVRTYYADSVKGRFTSSRDNAKNTVYLQMNSLKPEATAVYYCARDALHYAGSLHRYGYWGQGTQVTVSS”: the “polyreactivity (PSR sort gate)” value is “low polyreactivity”.

As to “QVQLVESGGGLVQAGGSLRLSCAASGRTFVGNTMGWYRQAPGKERELVAAISSGGRTYYADSVKGRFTISRDNAKNTVYLQMNSLKPEDTAVYYCAARRRGKVVPTSQFDYWGQGTQVTVSS”, the “polyreactivity (PSR sort gate)” value is recorded as “high polyreactivity”.

Take “QVQLVESGGGLVQAGGSLRLSCAASGRTFVGYAMGWYRQAPGKERELLAAISKSGGRTYYADSVKGRFTISRDNAKNTVFLQMNSLKPDDTAVYYCNAVVVYYVDAGRYDYWGQGTQVTVSS”: the “polyreactivity (PSR sort gate)” value is “high polyreactivity”.

“QVQLVESGGGLVQAGGSLRLSCAASGRTFVGYAMGWYRQAPGKERELVAAITSGGGTYYADSVKGRFTISRDNAKNTVYLQMNSLKPEDTAVYYCNRASRRGYYYPYNYWGQGTQVTVSS”: the “polyreactivity (PSR sort gate)” value is on record as “high polyreactivity”.

Turning to “QVQLVESGGGLVQAGGSLRLSCAASGRTFVGYAMGWYRQAPGKERELVAVISGRGGSTYYADSVKGRFTISRDNAKNTVYLQMNSLKPEDTAVYYCAAYVARKWTSGYWGQGTQVTVSS”, the “polyreactivity (PSR sort gate)” value is recorded as “high polyreactivity”.

On to “QVQLVESGGGLVQAGGSLRLSCAASGRTFVGYVMGWYRQAPGKERELVAAISKIGGRTYYADSVKGRFTISRDNAKNTVYLQMNSLKTEDTAVYYCAAERTKSIKLPRPGSMDYWGQGTQVTVSS”, for which the “polyreactivity (PSR sort gate)” value is listed as “low polyreactivity”.

Regarding “QVQLVESGGGLVQAGGSLRLSCAASGRTFVIYTMGWYRQAPGKERELVAAITQRGGITYYADSVKGRFTISRDNAKNTVYLQMNSLKPEDTAVYYCNSGRTYRRLGDYWGQGTQVTVSS”, the “polyreactivity (PSR sort gate)” value is reported as “high polyreactivity”.

As to “QVQLVESGGGLVQAGGSLRLSCAASGRTFVNYVMGWYRQAPGKEREFVAAISRNGGSTYYADSVKGRFTISRDNAKNTVYLQMNSLKPEDTAVYYCAARVYWRYNYWGQGTQVTVSS”, the “polyreactivity (PSR sort gate)” value was “high polyreactivity”.

As to “QVQLVESGGGLVQAGGSLRLSCAASGRTFVPYAMGWYRQAPGKERELVATITSAGSTYYADSVKGRFTISRDNAKNTVYLQMNSLKPEDTAVYYCNARYYSRRWPYDYWGQGTQVTVSS”, the “polyreactivity (PSR sort gate)” value is reported as “high polyreactivity”.

For the sequence “QVQLVESGGGLVQAGGSLRLSCAASGRTFVQYAMGWYRQAPGKERELVARITSVRSTNYADSVKGRFTISRDNAKNTVYLQLNSLKPEDTAVFYCAAPTVVYRSYYYWGQGTQVTVSS”, the “polyreactivity (PSR sort gate)” value is listed as “high polyreactivity”.

In the case of “QVQLVESGGGLVQAGGSLRLSCAASGRTFVRNAMAWYRQAPGKERELVAAITYGGGNTYYADSVKGRFTISRDNAKNTVYLQMNSLKPEDTAVYYCAKRRLYWSGQGWVRTYGYWGQGTQVTVSS”, the “polyreactivity (PSR sort gate)” value is recorded as “high polyreactivity”.

For the sequence “QVQLVESGGGLVQAGGSLRLSCAASGRTFVRNAMGWYRQAPGKERELVAGITRSGGSTYYADSVKGRFTISRDNAKNTVYLQMNSLKPEDTAVYYCAKRYDVYVGTVRPYDYWGQGTQVTVSS”, the “polyreactivity (PSR sort gate)” value was “low polyreactivity”.

Take “QVQLVESGGGLVQAGGSLRLSCAASGRTFVRNAMGWYRQAPGKERELVASITSGGSTYYADSVKGRFTISRDNAKNTVYLQMNSLKAEDTAVYYCAKRTYTPVYGYYYWGQGTQVTVSS”: the “polyreactivity (PSR sort gate)” value is on record as “high polyreactivity”.

On to “QVQLVESGGGLVQAGGSLRLSCAASGRTFVRYALGWYRQAPGKERELVAAISWNDNSTYYADSVKGRFTISRDNAKNTVYLQMNSLKPEDTAVYYCATRVLTQQPGYQAYIFPEFDYWGQGTQVTVSS”, for which the “polyreactivity (PSR sort gate)” value was “low polyreactivity”.

Turning to “QVQLVESGGGLVQAGGSLRLSCAASGRTFVRYAMGWYRQAHGKERELVAAIDSSGGRTYYADSVKGRFTISRDNAKNTVYLQMNSLKPEDTAVYYCNARRLASYRGYSWGQGTQVTVSS”, the “polyreactivity (PSR sort gate)” value was “high polyreactivity”.

For the sequence “QVQLVESGGGLVQAGGSLRLSCAASGRTFVRYAMGWYRQAPAKERELVAVNSRRGGSTYYADSVKGRFTISRDNAKNTVYLQMNSLKPVDTAVYYFAADYVRSKYDYWGQGTQVTVSS”, the “polyreactivity (PSR sort gate)” value is reported as “high polyreactivity”.

As for “QVQLVESGGGLVQAGGSLRLSCAASGRTFVRYAMGWYRQAPGKERELVAAISGDGASTYYADSVKGRFTISRDNAKNTVYLQMNSLKPEDTAVYYCNARSIRRYYYPDYDYWGQGTQVTVSS”, the “polyreactivity (PSR sort gate)” value is on record as “high polyreactivity”.

Values taken from the nanobody polyreactivity screen of Harvey et al. (2022).
